Biological target: T1, PD-1 (UniProt Q15116 25-288, limits assumed)
T1 construct: whole, on cells; also called Jurkat/PD-1细胞表面的PD-1
Test: Jurkat/PD-1 + CHO/PD-L1 NFAT-luciferase reporter blocking assay

T1 sequence (Q15116 25-288 limits assumed): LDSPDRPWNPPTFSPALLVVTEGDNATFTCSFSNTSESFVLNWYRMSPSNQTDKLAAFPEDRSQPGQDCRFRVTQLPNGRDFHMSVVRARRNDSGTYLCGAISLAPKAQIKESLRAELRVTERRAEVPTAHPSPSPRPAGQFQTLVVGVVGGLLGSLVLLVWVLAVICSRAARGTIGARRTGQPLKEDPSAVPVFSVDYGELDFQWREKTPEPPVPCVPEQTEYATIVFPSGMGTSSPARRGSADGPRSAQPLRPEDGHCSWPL

B1: G-Ab1 (antibody, human IgG4 S228P, kappa, V domains shown)
VH: QIQLVQSGSELKKPGASVKVSCKASGYTFTNFGMNWVRQAPGQGLKWMGWISGYTREPTYAADFKGRFVISLDTSVSTAYLQISSLKAEDTAVYYCARDVFDYWGQGTLVTVSS
VL: DIVLTQSPASLAVSPGQRATITCRASESVDNYGYSFMNWFQQKPGQPPKLLIYRASNLESGVPARFSGSGSRTDFTLTINPVEADDTANYYCQQSNADPTFGQGTKLEIKR
notes: An IgG4 isotype control was used alongside it; also called 抗PD-1抗体; G-Ab1抗体
Question: Does B1 bind?
Answer: binds

Reference: patent CN115607664A (GENOR BIOPHARMA CO LTD, dated 2023)
